US20130171644, “COINCIDENCE DETECTION” (KING'S COLLEGE LONDON, published 2013)

Columns and labels:
[1] = biological target: T1, RAR-PLCgNSH2-HA-EE; experiment: ELONA; single reagent alone; combined RXR/RAR required for signal; details: tags: GST, HA-EE-HIS; label: 5'-biotin
T1 chain: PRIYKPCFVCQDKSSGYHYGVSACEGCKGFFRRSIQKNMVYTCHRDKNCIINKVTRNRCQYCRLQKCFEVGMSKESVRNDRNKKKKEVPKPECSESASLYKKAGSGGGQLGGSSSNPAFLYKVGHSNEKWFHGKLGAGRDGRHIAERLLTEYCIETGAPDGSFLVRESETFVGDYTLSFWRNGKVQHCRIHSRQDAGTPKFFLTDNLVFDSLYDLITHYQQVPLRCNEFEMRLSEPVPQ

[2] = biological target: RXR-Grb2SH2-MYC; experiment: as above; details: tags: GST, MYC-HIS; label: 5'-biotin
[3] = biological target: RXR-Grb2SH2-MYC + RAR-PLCgNSH2-HA-EE heterodimer; experiment: ELONA; antibody- or bis-phosphopeptide-captured; peptide assay in 0.8xSSC, RT; details: tags: GST, MYC-HIS (RXR), label: 5'-biotin
[4] = biological target: T2, RXR-DBD-EKE-MYC (UniProt P19793 SEQ:260-356); experiment: ELONA; RXR alone; monomeric RXR does not bind DR5; details: tags: GST, label: 5'-biotin
T2 chain: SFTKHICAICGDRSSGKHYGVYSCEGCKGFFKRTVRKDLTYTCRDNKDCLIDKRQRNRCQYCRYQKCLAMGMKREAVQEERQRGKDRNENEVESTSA
Protocol: (§1) Method: 96-well microtiter plates were coated with a-EE (Y) and a-MYC (Y) at 10 ng/μl in 100 mM NaHCO3/Na2CO3 (pH 9.6). Excess antibody was removed and wells were blocked using 3% BSA. The biodetectors were then captured in the well as indicated in figures followed by the addition of 50 μl/well of biotinylated-DR5 DNA sequence (BIO-DR5, 5 pmol/μl). Control for specificity is the non-consensus oligo (BIO-non consensus) and un-biotinylated DR5 (competitor) to establish signal specificity. Washes were performed at each step to assure the removal of unbound reagents. Streptavidin-HRP was incubated for 30 min at RT, and after three washes, binding was assessed using TMB substrate. Absorbance was measured at 450 nm. Samples are in duplicate.
(§2) ELISA assays were carried out by coating 500 ng of α-MYC and α-EE antibodies diluted in 100 mM bicarbonate buffer (50 ul/well, pH 9.6). Antibodies were coated for 2 h at RT in a microtiter plate (MaxiSorp, Nunc). The wells were then washed once with 200 ul of PBS buffer (pH 7.3) and incubated 0/N at 4° C. with 200 ul of blocking buffer (PBS+3% BSA). The biodetectors where then added at the concentration of 0.7 pmol/well (50 ul/well in 150 mM NaCl, 50 mM Tris pH 7.6, 10% glycerol and 1% BSA) and incubated for 1 h at RT. […]

[5] = biological target: T3, RXR-DBD-EKE-MYC + RAR-DBD-KEK-S-EE heterodimer (UniProt P19793; SEQ:260-356,SEQ:260-363); experiment: ELONA; antibody-captured detectors, streptavidin-HRP readout, RT; details: tags: GST, label: 5'-biotin
T3 chain 1: T2 chain
T3 chain 2: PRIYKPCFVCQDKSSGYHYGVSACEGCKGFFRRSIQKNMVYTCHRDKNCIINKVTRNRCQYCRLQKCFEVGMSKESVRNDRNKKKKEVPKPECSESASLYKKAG
Protocol: as §1, §2

[6] = biological target: T4, RAR-DBD-KEK-S-EE; experiment: ELONA; RAR alone; monomeric RAR does not bind DR5; details: tags: GST, label: 5'-biotin
T4 chain: T3 chain 2
Protocol: as §1, §2

B1: BIO-DR5 (dsDNA)
DNA 1: TGGTATCTAGTTATTGCTCAGCGTGCCAGGTCACCGAAAGGTCAGAG
DNA 2: CTCTGACCTTTCGGTGACCTGGCACGCTGAGCAATAACTAGATACCA
B1: no binding [1]; no binding [2]; binds [3]. B1: no binding [4]; binds [5]; no binding [6].
